B1: CPEB3 Ribozyme (parent)
chain: GGGGGCCACAGCAGAAGCGUUCACGUCGCGGCCCCUGUCAGAUUCUGGUGAAUCUGCGAAUUCUGCUGU

Variants of: B1
Test: self-cleavage, relative activity (ratio to wild type); higher = more cleavage; co-transcriptional

Going from GGGGGCCACAGCAGAAGCGUUCACGUCGCGGUCCCUGUCAGAUUCUGGUGAACCUGCGAAUUCUGCUGU [C32U U53C] to GGGGGCCACAGCAGAAGCGUUCACGUCGCGGUCCCUGUCAGAUUCUGGUGAAUCUGCGAAUUCUGCCGU [C32U U67C], the self-cleavage rises from 0.875 to 0.959.

First: GGGGGCCACAGCAGAAGCGUUCACGUCGCGGUCCCUGUCAGAUUCUGGUGAAUCUGCGAAUUCUGCGGU [C32U U67G]
Second: GGGGGCCACAGCAGAAGCGUUCACGUCGCGGUCCCUGUCAGAUUCUGGUGAAUCUGCGAAAUCUGCUGU [C32U U61A]
The self-cleavage of the first is higher: 1.04 for the first, 0.893 for the second.

First: GGGGGCCACAGCAGAAGCGUUCACGUCGCGGUCCCUGUCAGAUUCUGGUGAAUCUGCGAAUUCUUCUGU [C32U G65U]
Second: GGGGGCCACAGCAGAAGCGUUCACGUCGCGGUCCCUGUCAGAUUCUGGUGAAUCCGCGAAUUCUGCUGU [C32U U55C]
The self-cleavage of the first is lower: 0.806 for the first, 0.837 for the second.

First: GGGGGCCACAGCAGAAGCGUUCACGUCGCGGCACCUGUCAGCUUCUGGUGAAUCUGCGAAUUCUGCUGU [C33A A42C]
Second: GGGGGCCACAGCAGAAGCGUUCACGUCGCGGCACCUGUCAGGUUCUGGUGAAUCUGCGAAUUCUGCUGU [C33A A42G]
The self-cleavage of the first is lower: 0.405 for the first, 0.685 for the second.

First: GGGGGCCACAGCAGAAGCGUUCACGUCGCGGCACCUGUCAGUUUCUGGUGAAUCUGCGAAUUCUGCUGU [C33A A42U]
Second: GGGGGCCACAGCAGAAGCGUUCACGUCGCGGUCCCUGUCAGAUUCUGGUGAAUCUGCGAAUUCUGCUGA [C32U U69A]
The self-cleavage of the first is lower: 0.499 for the first, 1.03 for the second.

First: GGGGGCCACAGCAGAAGCGUUCACGUCGCGGUCCCUGUCAGAUCCUGGUGAAUCUGCGAAUUCUGCUGU [C32U U44C]
Second: GGGGGCCACAGCAGAAGCGUUCACGUCGCGGUCCCUGUCAGAUGCUGGUGAAUCUGCGAAUUCUGCUGU [C32U U44G]
The self-cleavage of the first is lower: 0.938 for the first, 0.941 for the second.

Going from GGGGGCCACAGCAGAAGCGUUCACGUCGCGGUCCCUGUCACAUUCUGGUGAAUCUGCGAAUUCUGCUGU [C32U G41C] to GGGGGCCACAGCAGAAGCGUUCACGUCGCGGUCCCUGUCAUAUUCUGGUGAAUCUGCGAAUUCUGCUGU [C32U G41U], the self-cleavage falls from 0.858 to 0.856.

Compared with GGGGGCCACAGCAGAAGCGUUCACGUCGCGGUCCCUGGCAGAUUCUGGUGAAUCUGCGAAUUCUGCUGU [C32U U38G], GGGGGCCACAGCAGAAGCGUUCACGUCGCGGUCCCUGACAGAUUCUGGUGAAUCUGCGAAUUCUGCUGU [C32U U38A] is higher in self-cleavage: 0.294 for the first, 0.947 for the second.

First: GGGGGCCACAGCAGAAGCGUUCACGUCGCGGUCCCUGUCAGAUUCUGGUCAAUCUGCGAAUUCUGCUGU [C32U G50C]
Second: GGGGGCCACAGCAGAAGCGUUCACGUCGCGGUCCCUGUCAGAUUCUGAUGAAUCUGCGAAUUCUGCUGU [C32U G48A]
The self-cleavage of the first is lower: 0.991 for the first, 1 for the second.

Going from GGGGGCCACAGCAGAAGCGUUCACGUCGCGGUCCCUGUCAGAUUCUGUUGAAUCUGCGAAUUCUGCUGU [C32U G48U] to GGGGGCCACAGCAGAAGCGUUCACGUCGCGGUCCCUGUCAGAUUCUGCUGAAUCUGCGAAUUCUGCUGU [C32U G48C], the self-cleavage rises from 0.964 to 0.984.

Compared with GGGGGCCACAGCAGAAGCGUUCACGUCGCGGUCCCUGUCAGAUUCUGGUGAAUCUGCGAAUCCUGCUGU [C32U U62C], GGGGGCCACAGCAGAAGCGUUCACGUCGCGGUCCCUGUCAGAUUCUGGUGAAUCUGCGAAUACUGCUGU [C32U U62A] is higher in self-cleavage: 0.955 for the first, 0.979 for the second.

Going from GGGGGCCACAGCAGAAGCGUUCACGUCGCGGCACCUGUCCGAUUCUGGUGAAUCUGCGAAUUCUGCUGU [C33A A40C] to GGGGGCCACAGCAGAAGCGUUCACGUCGCGGCACCUGUCUGAUUCUGGUGAAUCUGCGAAUUCUGCUGU [C33A A40U], the self-cleavage rises from 0.339 to 0.375.

Going from GGGGGCCACAGCAGAAGCGUUCACGUCGCGGCACCUGUCAGAUUCUGGUGAAUCUGCGAAUUCUGCUGU [C33A] to GGGGGCCACAGCAGAAGCGUUCACGUCGCGGUCCCUGUCAGAUUCUGGCGAAUCUGCGAAUUCUGCUGU [C32U U49C], the self-cleavage rises from 0.916 to 1.

First: GGGGGCCACAGCAGAAGCGUUCACGUCGCGGUCCCUGUCAGAUUCUGGGGAAUCUGCGAAUUCUGCUGU [C32U U49G]
Second: GGGGGCCACAGCAGAAGCGUUCACGUCGCGGUCCCUGUCAGAUUCUAGUGAAUCUGCGAAUUCUGCUGU [C32U G47A]
The self-cleavage of the first is higher: 1.01 for the first, 0.971 for the second.

Going from GGGGGCCACAGCAGAAGCGUUCACGUCGCGGUCCCUGUCAGAUUCUCGUGAAUCUGCGAAUUCUGCUGU [C32U G47C] to GGGGGCCACAGCAGAAGCGUUCACGUCGCGGUCCCUGUCAGAUUCUGGUGAAUCUCCGAAUUCUGCUGU [C32U G56C], the self-cleavage falls from 0.97 to 0.858.

Compared with GGGGGCCACAGCAGAAGCGUUCACGUCGCGGUCCCCGUCAGAUUCUGGUGAAUCUGCGAAUUCUGCUGU [C32U U36C], GGGGGCCACAGCAGAAGCGUUCACGUCGCGGUCCCAGUCAGAUUCUGGUGAAUCUGCGAAUUCUGCUGU [C32U U36A] is lower in self-cleavage: 0.973 for the first, 0.216 for the second.

Compared with GGGGGCCACAGCAGAAGCGUUCACGUCGCGGCACCUGUCAGAUUCUGGUGAGUCUGCGAAUUCUGCUGU [C33A A52G], GGGGGCCACAGCAGAAGCGUUCACGUCGCGGCACCUGUCAGAUUCUGGUGACUCUGCGAAUUCUGCUGU [C33A A52C] is lower in self-cleavage: 0.785 for the first, 0.582 for the second.

First: GGGGGCCACAGCAGAAGCGUUCACGUCGCGGCACCUGUCAGAUUCUGGUGAUUCUGCGAAUUCUGCUGU [C33A A52U]
Second: GGGGGCCACAGCAGAAGCGUUCACGUCGCGGUCCCUGUCAGAUUCUGGUGAAUCUGCCAAUUCUGCUGU [C32U G58C]
The self-cleavage of the first is lower: 0.454 for the first, 0.963 for the second.

First: GGGGGCCACAGCAGAAGCGUUCACGUCGCGGUCCCUGUCAGAUUCUGGUGAAUCUGCUAAUUCUGCUGU [C32U G58U]
Second: GGGGGCCACAGCAGAAGCGUUCACGUCGCGGUCCCUGUCAGAUUCUGGUGAAUCUGCGAAUUCCGCUGU [C32U U64C]
The self-cleavage of the first is higher: 0.995 for the first, 0.899 for the second.

GGGGGCCACAGCAGAAGCGUUCACGUCGCGGUCCCUGUCAGAUUCUGGUGAAUCUGCGAAUUCAGCUGU [C32U U64A] showed a self-cleavage of 0.992.

Reference: the RNAGym collection of RNA variant scans (doi:10.7554/elife.80360)
